Experimental data taken from doi:10.1101/2020.09.09.273011.

Columns and labels:
[1] = molecular target: ΔEGF/Lam_Celsr3 (Celsr3-Flag lacking all the EGF repeats and Laminin domains) (mouse) (UniProt Q91ZI0); experiment: co-IP
[2] = molecular target: ΔLaminin G1_Celsr3 (Celsr3-Flag lacking the Laminin G1 domain) (mouse) (UniProt Q91ZI0); experiment: co-IP

B1: mouse Frizzled3 (Frizzled3-HA) (receptor)
chain: HSLFSCEPITLRMCQDLPYNTTFMPNLLNHYDQQTAALAMEPFHPMVNLDCSRDFRPFLCALYAPICMEYGRVTLPCRRLCQRAYSECSKLMEMFGVPWPEDMECSRFPDCDEPYPRLVDLNLVGDPTEGAPVAVQRDYGFWCPRELKIDPDLGYSFLHVRDCSPPCPNMYFRREELSFARYFIGLISIICLSATLFTFLTFLIDVTRFRYPERPIIFYAVCYMMVSLIFFIGFLLEDRVACNASSPAQYKASTVTQGSHNKACTMLFMVLYFFTMAGSVWWVILTITWFLAAVPKWGSEAIEKKALLFHASAWGIPGTLTIILLAMNKIEGDNISGVCFVGLYDVDALRYFVLAPLCLYVVVGVSLLLAGIISLNRVRIEIPLEKENQDKLVKFMIRIGVFSILYLVPLLVVIGCYFYEQAYRGIWETTWIQERCREYHIPCPYQVTQMSRPDLILFLMKYLMALIVGIPSIFWVGSKKTCFEWASFFHGRRKKEIVNESRQVLQEPDFAQSLLRDPNTPIIRKSRGTSTQGTSTHASSTQLAMVDDQRSKAGSVHSKVSSYHGSLHRSRDGRYTPCSYRGMEERLPHGSMSRLTDHSRHSSSHRLNEQSRHSSIRDLSNNPMTHITHGTSMNRVIEEDGTSA
- percent reduction of the interaction against wild type Celsr3 [1]: 68%
- percent reduction of the interaction against wild type Celsr3 [2]: 66%
